Sequences and labels used below:
B1: TPR t1 (parent)
chain: GACCAAUCUGCCCUCAGAGCUCGAGAACAUCUUCGGAUGCAGAGGAGGCAGGCUUCGGUGGCGCGAUAGCGCCAACGUCCUCAACCUCCAAUGCAUCCCACCACAUGAUGAUGCCUGAAGAGCCUUGGUUUUUUG

Experimental findings from the RNAGym collection of RNA variant scans (doi:10.1073/pnas.2313332121) are described below.

The variants in the data set derive from B1. Kind of data set: polymerase ribozyme fitness, log enrichment relative to wild type (log ratio); higher = more active; in vitro selection for triplet polymerase activity. The essentials:
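Streptavidin-bead capture of gel-excised extended constructs, followed by RT-PCR, closed a single triplicate in vitro selection round. That round began by annealing PCR-built, transcribed mutant libraries of each subunit of a heterodimeric triplet polymerase ribozyme with a biotinylated primer, the partner subunit and triplets, then incubating them frozen at −7 °C. After Illumina sequencing of inputs and outputs, genotypes needed ≥10 input reads and ≥1 read per output. Fitness is the base-2 logarithm of genotype enrichment over wild-type enrichment, using inverse-variance-weighted replicate averages.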
Regarding C11G C31G, the “polymerase ribozyme fitness (log ratio)” value was -4.32.
The value for C11A C13G G36U C73A was -4.01; that for C11G A27U C49A A84U C114A G120A U125A was -5.59.
To C11G A37U G69A A83C A121C belongs -1.05; to C11A G113A, -3.12.
To C11G C12G C79G C94U G117A U131A belongs -2.71.
On to C11A G17U, for which the “polymerase ribozyme fitness (log ratio)” value is -3.57.
The value for C11G C13U C104A A111U was -3.99; that for C11G C15G G47C U116C was -2.52.
The value for C11G C72G C82G G117C was -3.64; that for C11G was 0.294; that for C11G C13A C82G A84G was -1.63.
The value for C11G C62U C101G U131G was -3.31; that for C11A C64U U78C C80U A83G was -4.97.
Turning to C11A G69U G93A G128U, the “polymerase ribozyme fitness (log ratio)” value was -3.27.
Consider C11G C40A G48U C70U, for which the “polymerase ribozyme fitness (log ratio)” value is -1.6.
The value for C11G C53G C114U G127C was -1.98; that for C11G C40G C70G C89U was -5.83; that for C11A C94A U116A G120C was -0.809.
To C11A G39A belongs -2.5; to C11A C20U C73A A118U U133A, -2.94.
The value for C11G A27G G63C G93A was -3.72.
For the variant C11G C15U G25C A111C A118G, the “polymerase ribozyme fitness (log ratio)” value is -6.56.
Take C11G C28G G60A A68C U81A U106C G127C: the “polymerase ribozyme fitness (log ratio)” value is -6.42.
The value for C11G C62A was -0.516; that for C11A C49A U59A A91G was -2.95.
The value for C11A G17A C124A G128A was -5.02.
The value for C11A G93C was -1.54; that for C11G C49A A74G A75U G77U was -0.693; that for C11A U21C G52C A121C was 0.244.
As for C11G C88U U116C, the “polymerase ribozyme fitness (log ratio)” value was -0.109.
To C11A U78A G120A belongs 1.31; to C11A C56U, -1.61.
To C11G A18G C97U G110A belongs -3.11; to C11G C22G A41G G128C, -5.82; to C11A G17U G61C A84G C124A, -4.74.
Consider C11A G48U G60U C123A, for which the “polymerase ribozyme fitness (log ratio)” value is 0.672.
To C11G C40G G42U C73G U87A belongs -4.66.
The value for C11G A50C U125A was -0.245; that for C11A G61C was -2.39.
In the case of C11A G69C A121G, the “polymerase ribozyme fitness (log ratio)” value is -0.0496.
The value for C11A G71U C104A U129G G135U was -5.56; that for C11G A18C was -1.71; that for C11A C56U A105U was -3.49.
As for C11A U116A, the “polymerase ribozyme fitness (log ratio)” value was -4.
With C11G C73U, the “polymerase ribozyme fitness (log ratio)” value was found to be 0.123.
To C11G C73G belongs -0.268; to C11A G47C, -2.77; to C11A G60U, -0.589.
To C11G A41C belongs -0.501; to C11A G61A G93A C101G U112A U132A, -1.04.
To C11G A41C U87A G122A belongs -0.672; to C11A U106A G110U, -1.4; to C11A G45U U125G G127A, -4.
With C11G C80A G117C C123U, the “polymerase ribozyme fitness (log ratio)” value is -7.43.
The value for C11A C15G U21G G63U A90U G93U C115U C124U G127U was -6.26.
As to C11G A16U C28G A121C, the “polymerase ribozyme fitness (log ratio)” value was -0.982.
To C11G G19A U38G belongs -2.63; to C11A C49A G69A G113A G128C, -6.11.
As to C11A C72U, the “polymerase ribozyme fitness (log ratio)” value was -1.58.
The value for C11A C12U U38A U78C U96A was -2.53; that for C11G C13G A18U C49G was -3.53.
To C11A G69U C97A C101A C104A belongs -3.94.
To C11A C70A belongs -2.06.
C11A U78C: the “polymerase ribozyme fitness (log ratio)” value is -0.895.
The value for C11A C40A C49G C94U was -3.79; that for C11G A18U G44A G69U was 0.139.
To C11G A43G U59A C64U belongs -2.3; to C11G C73U C85A A111G, -0.304; to C11G G17A U81A C85U G117C, -4.91.
Turning to C11G A16U A24G G47C C72A A111C, the “polymerase ribozyme fitness (log ratio)” value was -7.64.
The value for C11G C12G C73U C123G U125A was -2.92; that for C11G C22G C53G C70U C82U was -4.01; that for C11A G60U A83U was -2.13.
Turning to C11A C56A G69A A84G A121C, the “polymerase ribozyme fitness (log ratio)” value was -4.27.
The value for C11A U54G U81A was -2.11.
To C11A U30C belongs -5.07.
The value for C11A C72G A111U was -6.18.
Turning to C11G C40U G63A, the “polymerase ribozyme fitness (log ratio)” value is -1.18.
As for C11A C72A C101A U126C, the “polymerase ribozyme fitness (log ratio)” value was -3.38.
To C11A G60U U112A A118U belongs 0.776.
To C11A G60C C86U belongs -1.76; to C11A C13A A74C, -2.72; to C11G C76U C99A U130G, -6.95.
